The results in this text go back to patent US20200002414A1 (published 2020).

What all share (experiment): ELISA
On the technique in general: In an ELISA, binding on a coated surface is turned into a signal by an enzyme label.

For assay [1], the target named is T1, human Ror2 (human, UniProt Q01974 34-403, limits assumed).
T1 construct: also called hROR2; receptor tyrosine kinase-like orphan receptor 2

The target in assay [2] is T2, cynomolgus Ror2 (cynomolgus, UniProt A0A7N9D5U8 34-403).
T2 construct: also called cynoROR2
T2 sequence (A0A7N9D5U8 entry or part of it): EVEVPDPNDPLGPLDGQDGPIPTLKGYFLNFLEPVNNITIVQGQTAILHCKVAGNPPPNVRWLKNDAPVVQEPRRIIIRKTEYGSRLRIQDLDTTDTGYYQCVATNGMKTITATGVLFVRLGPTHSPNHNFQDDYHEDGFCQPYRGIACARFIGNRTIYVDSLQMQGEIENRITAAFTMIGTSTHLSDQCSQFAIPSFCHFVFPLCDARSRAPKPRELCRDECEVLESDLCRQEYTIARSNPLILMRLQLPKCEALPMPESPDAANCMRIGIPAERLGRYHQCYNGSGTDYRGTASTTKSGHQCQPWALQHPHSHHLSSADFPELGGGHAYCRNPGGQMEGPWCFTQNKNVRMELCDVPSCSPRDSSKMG

The target in assay [3] is T3, mouse Ror2 (mouse, UniProt Q9Z138 34-403, limits assumed).
T3 construct: also called mROR2
T3 sequence (Q9Z138 34-403 limits assumed): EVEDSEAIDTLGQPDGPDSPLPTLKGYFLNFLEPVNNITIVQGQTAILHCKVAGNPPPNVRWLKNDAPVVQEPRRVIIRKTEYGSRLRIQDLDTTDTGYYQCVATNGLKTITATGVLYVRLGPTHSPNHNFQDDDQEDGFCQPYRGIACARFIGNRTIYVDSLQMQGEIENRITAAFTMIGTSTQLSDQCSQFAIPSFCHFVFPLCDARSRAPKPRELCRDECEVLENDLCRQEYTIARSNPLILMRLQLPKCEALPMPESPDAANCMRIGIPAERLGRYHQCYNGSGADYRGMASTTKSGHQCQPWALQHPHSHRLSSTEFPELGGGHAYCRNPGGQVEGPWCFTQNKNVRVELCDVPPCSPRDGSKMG

T1 sequence (Q01974 34-403 limits assumed): as the sequence (A0A7N9D5U8 entry or part of it) above, with P5L, A212T, T289M, A320T counted along it

B1: conditionally active antibody BAP048 (antibody, V domains shown)
VH: EVQLVQSGAEVKKPGESLRISCKGSGYTFTEYTMHWVRQAPGQGLEWMGGINTNNGGTGYNQKFKGRVTISADKSISTAYLQWSSLKASDTAMYYCAHGSLYSYGNSYFDYWGQGTLVTVSS
VL: AIQLTQSPSSLSASVGDRVTITCSATSSVSYMHWYLQKPGQSPQLLIYGTSNLASGVPDRFSGSGSGTDFTLKISRVEAEDVGVYYCQQRSSYPFTFGQGTKVEIK
In general, EC50 refers to the midpoint of the concentration-response curve. Higher therefore signals weaker potency. Turning to B1, the concentration giving a half-maximal response (EC50) in assay [1] worked out at 0.201 µg/mL; in assay [2] it was 0.327 µg/mL; in assay [3], 7.65 µg/mL.
